Data: the supplement of paper PMC9170038

System: MS2 coat protein
Assay: apparent KD of MS2 coat protein; designed switch direction (-1 OFF switch, 1 ON switch): -1; higher = weaker reporter binding
How it was run: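 For each design, the apparent KD is the median over clusters of curves fitted to normalised cluster fluorescence. Clusters held RNA switches with common flanks, transcribed on Illumina chips by stalled E. coli RNA polymerase. These were titrated with SNAP-549-labelled MS2 coat protein, doubling from 0.7 or 1.5 nM to 3 µM, without input, with 200 uM small-molecule ligand, or with an oligonucleotide input.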

[1] = Eterna round: R95, input ligand: FMN 200 uM
[2] = Eterna round: R95, input ligand: microRNA oligo, concentration not stated
[3] = Eterna round: R95, input ligand: none
[4] = input ligand: microRNA oligo, concentration not stated

| Sequence | apparent KD of MS2 coat protein [1] | apparent KD of MS2 coat protein [2] | apparent KD of MS2 coat protein [3] | apparent KD of MS2 coat protein (input ligand: FMN 200 uM) | apparent KD of MS2 coat protein (input ligand: none) | apparent KD of MS2 coat protein [4] |
| --- | --- | --- | --- | --- | --- | --- |
| AGUACUAACACGGCAGUGUUAGUACAAUAAGCUUGUGAAACAUGAGGAUCACCCAUGUCCUCAUAAGCUCGUCUUAU [salish99_TOv2_r3_065] (puzzle: Sensor v3, turn-off variant 2) | 0.0186 µM | 0.423 µM | 0.0154 µM | – | – | – |
| AAUAAACAUGAGGAUCACCCAUGUGAGGAUAUACAAAUAAAUAAAUAAAUAAAUAAUAGUAGAAGGCACAAUAA [Excls1-II] (puzzle: Exclusion 1) | 0.0359 µM | 0.0353 µM | 0.044 µM | – | – | – |
| UAGACUGAAGGAUAUACGUGGUAUCCGGCUAAUCAAGGUUCACAUGAGGAUCACCCAUGUAGAAGGUCAGCUCG [Eternabot (L2) Solution 18] (Eterna round: R97, puzzle: Exclusion 2) | – | – | – | 0.359 µM | 0.0584 µM | – |
| AGUACUCUCACGAAAGUGAGAGUACAAAAAGCAAGUGAAACAUGAGGAUCACCCAUGUCCUCAUUUGCUCGUCUUAU [Mat - Sensor v2 -ver2- JL mod - D88] (Eterna round: R96, puzzle: Sensor v2, turn-off variant 2) | – | – | – | 0.0118 µM | 0.0144 µM | 0.413 µM |
| UUUGCAAGCUAUAGAUCCCACAUGAGGAUCACCCAUGUUGCUGCCGUGAGGUAGCAUUUAACUAUUGCUCGUCUUAU [JL TOV1 3.51] (Eterna round: R97, puzzle: Sensor, turn-off variant 1) | – | – | – | 0.19 µM | 0.245 µM | – |
| ACGCUCCGUGUAGGAUAUCGCCGUACCACUCGGCGAGAAGGACAUGAGGAUCACCCAUGUAUGUUAUUAUCACGUGUGGCGCGC [Design 51] (Eterna round: R96, puzzle: Exclusion NG 1) | – | – | – | 0.0255 µM | 0.0199 µM | 0.0152 µM |
| UUUUAGUGAGGAUAUACAUUUUUUUAAUUAUUUAUAAUAUUACAUGAGGAUCACCCAUGUAGAAGGCACAUUUU [My Design] (puzzle: Exclusion 2) | – | 0.0274 µM | – | – | – | – |
| AAUUUACAUGAGGAUCACCCAUGUGAGGAUAUAUGCAAAGAAGUGUUAGUAAGAAAGCAUAGAAGGCGCGUGAU [JR_Exc1_Sub041] (Eterna round: R97, puzzle: Exclusion 1) | – | – | – | 0.0646 µM | 0.0478 µM | – |
| CAGCCUCUUGUGAGGAUAUUCUGCUAAGCGAGGCGGAAGAAGGUACAUGAGGAUCACCCAUGUUGGCGGAAUAA [Eternabot (Original) Solution 21] (Eterna round: R97, puzzle: Brourd's mod of Exclusion 4) | – | – | – | 0.167 µM | 0.0376 µM | – |
| AGCAAGUUAGGAUAUCUUAAAGUUAGGUGAUGUCCUGUUUGAGAGAAGGAACAUGAGGAUCACCCAUGUGGUCA [Eternabot (L2) Solution 56] (Eterna round: R97, puzzle: Exclusion 4) | – | – | – | 0.0583 µM | 0.0626 µM | – |
| AGUAGUAGUGUCCGAUCCUACAUGAGGAUCACCCAUGUAGCUAGACGUGCACGCGAUGCUCGUCAGACUACCAGAUG [salish99_TOv1_r3_046] (puzzle: Sensor v3, turn-off variant 1) | 0.0837 µM | 0.0887 µM | 0.129 µM | – | – | – |
| CUCUUGUGAGGAUAUCAGGUGUGCUAGCGUACUGGUACAUCUGAGAAGGCACAUGAGGAUCACCCAUGUUUCUA [Mat - Exclusion 4 - Mod of JL - D40] (puzzle: Exclusion 4) | – | 0.0938 µM | – | – | – | – |
| CUUUUGUGAGGAUAUUAGUAGUAAAUUAAUAAAAUUACUACUGAGAAGGCACAUGAGGAUCACCCAUGUUCCUC [salish99_ex4_r3_054] (puzzle: Exclusion 4) | – | 0.0397 µM | – | – | – | – |
| UUGAAUUAGCAGGAUAUGGGAGUCGAUAGACACCCAGAAGGGCUAACAUGAGGAUCACCCAUGUGUCCUAUCAA [Mod of Eli 22 - Jieux - Exclusion 6] (Eterna round: R97, puzzle: Exclusion 6) | – | – | – | 0.204 µM | 0.0339 µM | – |
| GGUGGACAUGAGGAUCACCCAUGUGAGGAUAUCGGCCGGCUAGUGGCGGCUGGCUUCACGAGAAGGCGCAUAGU [Exclusion 1 V78] (puzzle: Exclusion 1) | – | 0.0654 µM | – | – | – | – |
| AAACCUAGUCUAGGAUAUGGUGAGAGUUUGUCGGUGAGUACAUGAGGAUCACCCAUGUACGCUUGCUAGAAGGAGACAGGCUCG [Eternabot solution 37] (Eterna round: R96, puzzle: Exclusion NG 2) | – | – | – | 0.0137 µM | 0.0146 µM | 0.0115 µM |
| GCUGGUCGAGGAUAUACAUGAGGAUCACCCAUGUGAUCAGCAGUCCUCGGACUGCAAUGUAGAAGGUGACCAGC [E3/1-B1] (Eterna round: R97, puzzle: Exclusion 3) | – | – | – | 0.583 µM | 2.27 µM | – |

| Sequence | apparent KD of MS2 coat protein [1] | apparent KD of MS2 coat protein [2] | apparent KD of MS2 coat protein [3] | apparent KD of MS2 coat protein (input ligand: FMN 200 uM) | apparent KD of MS2 coat protein (input ligand: none) | apparent KD of MS2 coat protein [4] |
| --- | --- | --- | --- | --- | --- | --- |
| AAAACAAGCAUAAGAUCCCACAUGAGGAUCACCCAUGUGCUCGUCUUAUAAAAGGUUUCGACGAAAACGUCGAGACC [Eli 91 v30] (Eterna round: R97, puzzle: Sensor, turn-off variant 1) | – | – | – | 0.0296 µM | 0.0296 µM | – |
| UCGGAUUCAGGAUAUUGCACAUGUGACAUGAGGAUCACCCAUGUUCCCUUAUUUGGUCACCAAGAAGGGAGUUUAU [Eternabot (L2) Solution 34] (Eterna round: R97, puzzle: Exclusion 5) | – | – | – | 0.157 µM | 0.152 µM | – |
| GCUGGACAAGGAUAUGCAAUCGUGCUUCGGCACGUAAGGUCACAUGAGGAUCACCCAUGUAGAAGGUGUCCAGC [E2/4-C2] (Eterna round: R97, puzzle: Exclusion 2) | – | – | – | 0.0313 µM | 0.0161 µM | – |
| UGUUGUUACGCAGGAUAUCCACCAACAGGUGGAAGGAUAUGUACGCAGAAGGUUCGCCAACAGGCGGAGAAGGGCGGGUUAACA [pwkr exNG2 2xF7 2xFMN.26] (Eterna round: R96, puzzle: Exclusion NG 2) | – | – | – | 0.178 µM | 3.69 µM | 0.0634 µM |
| UGUACGAUGCGUGCUGACAUGCGUCGUGCAGCAGGUUUUACAUGAGGAUCACCCAUGUCCUCACUUGCUCGUCUUGU (puzzle: Sensor v3, turn-off variant 2) | 0.257 µM | 0.187 µM | 0.279 µM | – | – | – |
| UUUAUUUUGCAAGGAUAUGUUUAAUUUUAGUUUCCUUAAACAUGAGGAUCACCCAUGUUAUACUUACAGAAGGUGCAUAAUUUU [JR_ExcNG2_Sub036] (Eterna round: R96, puzzle: Exclusion NG 2) | – | – | – | – | – | 0.0733 µM |
| ACAAGCUUAUUGCUCGGGUACAUGAGGAUCACCCAUGUUAGUGAUUAUAGAGAAUGUGUUGACGUGCGCUGCAGGUU [JR_SV3TOV1_Sub079] (puzzle: Sensor v3, turn-off variant 1) | 0.0755 µM | 0.046 µM | 0.0922 µM | – | – | – |
| AAUUAAACAAGCAGAUCCCACAUGAGGAUCACCCAUGUGCUCGUCUUAUAAGGUACUGUGACGAGAGUCACGGUACC [Mat - Sensor, turn-off var - Eli Mod - D64] (Eterna round: R97, puzzle: Sensor, turn-off variant 1) | – | – | – | 0.0664 µM | 0.0474 µM | – |
| ACAUUUUAUCCAUGAUAUCACAUGAGGAUCACCCAUGUUAAGGCGAUUUUGAUUUGUAAGCUUUGUGCUCGACUUAU [JR_STOV1_Sub054] (Eterna round: R97, puzzle: Sensor, turn-off variant 1) | – | – | – | 0.0356 µM | 0.0421 µM | – |
| UAUUAGCAAGCGAGAUCCCACAUGAGGAUCACCCAUGUGCUCGUCUUAUAAGGUACUGUGACGAUAGUCACGGUACC [Mat - Sensor, turn-off var - Eli Mod - D16] (Eterna round: R97, puzzle: Sensor, turn-off variant 1) | – | – | – | 0.0129 µM | 0.0148 µM | – |
| UUUAAUUUUUUUUUUUUACAAGCUUUUUGCUCGUCUUAUACAUGAGGAUCACCCAUGUGAGUGGGAGAUAAAUUAUC [JMF 22] (puzzle: Sensor v3, turn-off variant 2) | 0.0982 µM | 0.213 µM | 0.17 µM | – | – | – |
| GUGUACAGAGGAUAUAUAUGAGCUAGGAAACUAGCAAACUCACAUGAGGAUCACCCAUGUAGAAGGCUGUACAC [Ex2: 722] (Eterna round: R96, puzzle: Exclusion 2) | – | – | – | 0.22 µM | 0.0269 µM | 0.0224 µM |
| CAGUACUGAGGAUAUACAUGAGGAUCACCCAUGUGAAAAAGCUACGAAAGUAGCAAAUGUAGAAGGCAGUACUG [Ex3: 806] (Eterna round: R96, puzzle: Exclusion 3) | – | – | – | – | – | 0.0299 µM |
| UAUUAGCAAGCGAGAUCCCACAUGAGGAUCACCCAUGUGCUCGUCGCAUCCAGAAUUACUGGGUGCGCUCGUCUUAU [Winner reversed engineered 15] (Eterna round: R97, puzzle: Sensor, turn-off variant 1) | – | – | – | 0.0238 µM | 0.0237 µM | – |
| CUGUACUGAGGAUAUACAUGAGGAUCACCCAUGUUCCAAGGCUAGGAAACUAGCAAAAGUAGAAGGCAGUACAG [Mat - Exclusion 3 - Eli Mod - D55] (Eterna round: R97, puzzle: Exclusion 3) | – | – | – | 0.556 µM | 0.0327 µM | – |
| UCAUGUUUAGAGGAUAUGAUUACUCUAGAGUGAUCAGAAGGCUAGACAUGAGGAUCACCCAUGUCAGAACAUGA [Exclusion 6 - B - 16:b] (puzzle: Exclusion 6) | 0.0954 µM | 0.0476 µM | 0.0465 µM | – | – | – |
| AAGGACUGAGGAUAUGCGCGGGCAAGAUCCUCAAUCCCAAAACAUGAGGAUCACCCAUGUAGAAGGCAGAAAUA [Tereenrion] (puzzle: Exclusion 2) | – | 0.0234 µM | – | – | – | – |
